Results as given in US20220389113A1, “BINDING PROTEINS TO CUB DOMAIN-CONTAINING PROTEIN (CDCP1)” (COMMONWEALTH SCIENTIFIC AND INDUSTRIAL RESEARCH ORGANISATION, priority 2019, published 2022).

Tests used:
[1] = test system: p-CDCP1-Y734 in HEY cells; assay: Western blot of CDCP1-Y734 and Src-Y416 phosphorylation in HEY cells; assay type: cell-based, human; conditions: 5 μg/ml
Method: Cells were biotinylated (4° C., 1 h) with cell-impermeant EZ-link NHS-SS Biotin (1.22 mg/ml; Thermo) then PBS washed and lysed in buffer containing 20 mM HEPES, 150 mM NaCl, 1 mM EDTA, 1% Triton X-100, 1×Complete protease inhibitor cocktail (PIC) and phosphatase inhibitors (2 mM Na3VO4, 10 mM NaF). After centrifugation the supernatant was incubated (15 minutes, 4° C.) with ImmunoPure immobilized streptavidin beads (Thermo). After pelleting, the supernatant containing intracellular proteins was transferred to a separate tube, and the beads washed in lysis buffer containing PIC and phosphatase inhibitors. Lysates and proteins separated by cell surface biotinylation (40 μg/lane) were examined by Western blot analysis as described (He Y, et al., (2016) Oncogene. 35(4):468-78).
Since Src tyrosine phosphorylation is important in CDCP1-mediated signal transduction (Casar B, et al., (2012) Oncogene. 31(35):3924-38), the inventors next examined this in antibody induced processing of CDCP1. […] Live-cell images of the four cell lines were analysed to determine the distance moved (track length) by individual CDCP1^GFP positive puncta during mAb-induced internalization (FIG. 5C, left). […]

HEY cells = assay: Colony formation assay, HEY cells; assay type: cell-based, human
Method: (§1) MMAE-conjugated 10D7 and IgG1K were prepared as described (Nielsen C F, et al., (2017) Oncotarget. 8(27):44605-24.53) and drug-antibody ratio (DAR) determined by reverse phase LC/MS as reported (Basa L. et al., (2013) Methods Mol Biol. 1045:285-93.) on an ABSCIEX Triple TOF spectrometer (AB SCIEX Framingham, Mass.) coupled to a Shimadzu Nexera 1D UHPLC system (Shimadzu, Rydalmere, Australia). ADC peak identification was performed as reported with DAR determined by peak area integration (Hamblett K J, et al., (2004) Clin Cancer Res. 10(20):7063-70; Yao X, et al., (2015) Breast Cancer Res Treat. 153(1):123-33). Colony-formation assays were performed as described (Crowley L C, et al., (2016) Cold Spring Harb Protoc. 2016(8):pdb.prot087171) on cells (100,000/ml) treated with the indicated concentrations of 10D7, 10D7-MMAE, IgG or IgG-MMAE overnight before being lifted and replated in 24-well plates (200 cells/well). After a defined growth period media was removed and cells gently PBS washed before staining with 0.1% crystal violet (Sigma-Aldrich) in 2% ethanol. After 20 minutes and stained cells were scanned (700 nm) on a LiCOR System (Odyssey V3.0 software) with images analyzed using the ColonyArea ImageJ plugin to quantify colony area and intensity (Guzmán C, et al., (2014) PLoS One. 9(3):e92444.). […]

OVMZ6-CDCP1 cells = assay: Colony formation assay, OVMZ6-CDCP1 cells; assay type: cell-based, human
Method: as §1

OVMZ6 cells = assay: Colony formation assay, OVMZ6 cells; assay type: cell-based, human; conditions: even at the highest concentration
Method: as §1

TKCC02 cells = assay: Survival assay with cytotoxin-conjugated antibodies, TKCC02; assay type: cell-based, human; conditions: TKCC02, 1 μg/ml, 12 h treatment then 72 h growth
Method: (§2) The relative number of viable cells was then measured by adding the CellTiter AQueous One Solution Reagent to each well and measuring absorbance at 490 nm as described above. […] Cells were imaged by wide-field fluorescence microscopy and the total area of confluence for each cell type was quantified by image analysis using Image J software.

TKCC10 cells = assay: Survival assay with cytotoxin-conjugated antibodies, TKCC10; assay type: cell-based, human; conditions: TKCC10, 1 μg/ml, 12 h treatment then 72 h growth
Method: as §2

TKCC2.1 cells xenografts = assay: Pancreatic cancer subcutaneous xenograft, MMAE-labelled 10D7 and chimeric 10D7; conditions: 125 μg iv, treated twice
Method: Pancreatic cancer cells (TKCC2.1 cells, 1×10^6 cells) were grafted subcutaneously in NSG mice. After 4 weeks, mice were randomized into 5 groups (10 mice per group) and treated with: PBS (iv, 125 μl fortnightly), IgG-MMAE (iv, 125 μg diluted in 125 μl PBS), 10D7-MMAE (iv, 125 μg diluted in 125 μl PBS), Chim hu/mu-10D7-MMAE (iv, 125 μg diluted in 125 μl PBS) or Gemcitabine (ip, 100 mg/kg in PBS weekly).
Mice were euthanized when one ethical end point was reached (either tumour size or excessive signs of distress).

B1: 10D7-MMAE (conjugate)
VH: EVQLQQFGAELVKPGASVKISCKASGYSFSDFNIEWLKQSHGKSLEWIGDINPNYDSTNYNQKFKGRATLTVDKSSSTAYMEVRSLTSEDTAVYYCARLGYGYAMDYWGQGTSVTVSS
VL: NIVMTQSPQSMSMSVGERVTLSCKASENVGAYVSWFQQKPDQSPKLLILAASNRYTGVPARFIGSGSATDFTLTISSVQAEDLADYHCGQSYTYPYTFGGGTKLEIKRADAAPTVS
In the case of B1, the “time to phosphorylation of CDCP1-Y734 and Src-Y416” value [1] is reported as no more than 1 h, the “half maximum dose required to block colony formation” value (HEY cells) is reported as “approximately 0.2 μg/ml” and the “half maximum dose required to block colony formation” value (OVMZ6-CDCP1 cells) is reported as roughly 0.07 µg/mL. For the same molecule, the colony formation (OVMZ6 cells) was “unaffected”, the survival of cells (TKCC02 cells) was “about 25%” and the survival of cells (TKCC10 cells) was “about 50%”. The “reduction of pancreatic tumour volume” value (TKCC2.1 cells xenografts) was “superior to gemcitabine” and the survival of mice (TKCC2.1 cells xenografts) was “prolonged”.
